System: parathyroid hormone
Assay: In vivo inhibition of PTH-stimulated urinary cyclic AMP excretion in thyroparathyroidectomized vitamin D deficient rats
Conditions: same experiment as FIG. 1
Description: The compound [Tyr-34]bPTH(7-34)amide was administered in vivo as an inhibitor of PTH stimulated biological activities. The effectivenss of the treatment was measured by measuring the urinary phosphate and cyclic AMP, standard procedures well known in endocrinology as valid measure of PTH activity. The dosage of PTH analogues used varied from more than 3.0 μg/Kg/hr to less than 15 mg/Kg/hr, optimally between 0.3 mg/Kg/hr and 1.5 mg/Kg/hr. Single bolus dosages were occassionally utilized as indicated containing the equivalent of many hours of the infusion procedure.
Male weanling Holtzman rats were maintained on a purified vitamin D deficient diet containing 0.44% calcium and 0.30% phosphorous for 7 weeks. At this time, the rats weighed 130-170 g. Thyroparathyroidectomy of the vitamin D deficient rats was preformed under anesthesia with ketamin hydrochloride injected intratraperitoneally. The femoral vein was cannulated with a heparin-treated polyethylene tube, and the blood was collected via the catheter for determination of blood chemistries. When needed both femoral veins were cannulated. A polyethylene catheter was also inserted into the urinary bladder via the ventral approach. […]
FIG. 2 is an experiment identical to that shown in FIG. 1, however, urinary cyclic AMP is now measured instead of urinary phosphate. […]

B1: bovine parathyroid hormone (protein, UniProt P01268 32-115, looked up)
Parathyroid hormone: AVSEIQFMHNLGKHLSSMERVEWLRKKLQDVHNFVALGASIAYRDGSSQRPRKKEDNVLVESHQKSLGEADKADVDVLIKAKPQ
modifications: Parathyroid hormone
notes: native 84-amino acid bovine parathyroid hormone, infused as the agonist
- effect on urine cyclic AMP production, substance administered alone (FIG. 2): marked effect
